These results are taken from patent publication US20130230533A1 (Regeneron, published 2013).

Assay [1] addresses T1, Monomeric human CD48-mmH (human).
T1 chain: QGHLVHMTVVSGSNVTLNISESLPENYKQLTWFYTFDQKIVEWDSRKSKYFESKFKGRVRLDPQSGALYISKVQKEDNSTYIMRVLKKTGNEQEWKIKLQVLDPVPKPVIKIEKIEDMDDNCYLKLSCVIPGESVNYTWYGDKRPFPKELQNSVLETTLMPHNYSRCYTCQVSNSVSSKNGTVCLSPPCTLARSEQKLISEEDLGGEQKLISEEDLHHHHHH
Briefly: SPR (Biacore), antibody captured by anti-Fc, CD48 in solution, 37 C. Here is the method:
(§1) Measurements were conducted on a T100-2 BIACORE™ instrument (Biacore Life Sciences division of GE Healthcare, Piscataway, N.J.). Antibodies (either with mouse Fc [designated “H2M” or “H3M”] or human IgG4 Fc [designated “H4H”]) were captured through an anti-Fc chip surface, and CD48 was flowed over the surface either in a monomeric (soluble CD48 expressed with a myc-myc-hexa-histidine C-terminal tag [mmH]) or dimeric (soluble CD48 expressed with a C-terminal Fc fusion [mFc]) format.
(§2) The soluble CD48 was applied to the flow cell in separate injections at different concentrations, and kinetic association (kₐ) and dissociation (kd) rate constants were determined by fits to the kinetic binding data using Biacore software. Binding dissociation equilibrium constants and dissociation half-times were calculated from the kinetic rate constants as: KD=kd/kₐ; t_{1/2}=(ln 2/kd) (units: ka=M⁻¹*s⁻¹; kd=s⁻¹; KD=M; T½=min) (Tables 3-6).

Assay [2] deals with T2, Dimeric human CD48-mFc (human).
T2 construct: the whole entry is the construct; also called hCD48-mFc
T2 chain: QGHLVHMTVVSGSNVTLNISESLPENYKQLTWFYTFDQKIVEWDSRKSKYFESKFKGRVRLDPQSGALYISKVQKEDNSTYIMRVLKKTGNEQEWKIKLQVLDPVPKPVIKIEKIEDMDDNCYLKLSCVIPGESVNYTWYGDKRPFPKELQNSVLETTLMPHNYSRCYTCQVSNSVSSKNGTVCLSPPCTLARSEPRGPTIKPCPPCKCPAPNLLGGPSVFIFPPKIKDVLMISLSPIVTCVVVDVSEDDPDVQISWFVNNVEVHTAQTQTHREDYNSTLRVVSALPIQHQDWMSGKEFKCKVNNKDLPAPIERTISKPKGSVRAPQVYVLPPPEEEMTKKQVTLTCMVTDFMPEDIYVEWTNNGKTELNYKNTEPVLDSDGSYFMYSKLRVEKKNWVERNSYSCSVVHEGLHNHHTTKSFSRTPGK
The assay is described as above. Here is the method: as §1, §2

Assay [3] has as its target T3, Monomeric human CD48-mmH (human).
T3 construct: also called soluble CD48 expressed with a myc-myc-hexa-histidine C-terminal tag [mmH]
T3 chain: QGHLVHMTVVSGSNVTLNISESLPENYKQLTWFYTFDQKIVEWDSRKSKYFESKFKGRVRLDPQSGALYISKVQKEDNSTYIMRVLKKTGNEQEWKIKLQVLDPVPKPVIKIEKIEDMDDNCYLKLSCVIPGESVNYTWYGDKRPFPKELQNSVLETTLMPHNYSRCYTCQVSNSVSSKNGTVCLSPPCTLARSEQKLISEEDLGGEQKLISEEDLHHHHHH
Briefly: SPR (Biacore T100), 25 C, antibody captured by anti-Fc, monomeric CD48-mmH in solution. The protocol:
as §1, §2

The target in assay [4] is T4, Dimeric human CD48-mFc (human).
T4 chain: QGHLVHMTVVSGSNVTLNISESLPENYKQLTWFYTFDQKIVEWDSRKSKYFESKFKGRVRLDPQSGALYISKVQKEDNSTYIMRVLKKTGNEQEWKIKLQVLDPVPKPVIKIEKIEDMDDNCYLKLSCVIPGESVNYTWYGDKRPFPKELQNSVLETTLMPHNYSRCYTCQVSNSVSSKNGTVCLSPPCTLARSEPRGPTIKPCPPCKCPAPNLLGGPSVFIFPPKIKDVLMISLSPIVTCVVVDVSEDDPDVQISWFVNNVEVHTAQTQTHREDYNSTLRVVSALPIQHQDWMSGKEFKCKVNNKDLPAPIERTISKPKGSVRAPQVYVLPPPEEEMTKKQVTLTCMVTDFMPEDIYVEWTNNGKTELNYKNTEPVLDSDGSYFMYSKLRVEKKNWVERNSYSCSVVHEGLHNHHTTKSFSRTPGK
Briefly: SPR (Biacore T100), 25 C, antibody captured by anti-Fc, dimeric CD48-mFc in solution. The protocol: as §1, §2

B1: H2M1713N (antibody, mouse IgG2, V domains shown)
VH: QVQLVQSGAEVKKPGASVKVSCKASGHTFTNYYIHWVRQAPGQGLEWMGITNPNDGNTRYAQKFQGRISMTWDTSTSTVFMELSSLKSEDTAVYYCAGLRYWFFDLWGRGTPVTVSS
VL: DIQMTQSPSSVSASVGDRVTITCRASQDISSWLAWYQQKPGKAPNLLIFAASSLQSGVPSRFSGSGSGTDFTLTISSLQPEDFGTYYCQQTDNFPRTFGQGTKVEIN
notes: Human variable domains, mouse IgG2 Fc (H2M)
In the assay with Monomeric human CD48-mmH [1], B1 had an equilibrium dissociation constant (Kd) of 2.74 nM, a T½ of 18 min, an off-rate (koff) of 0.000644 s⁻¹ and an association rate constant (kon) of 235000 M⁻¹ s⁻¹. Further, in the assay with Dimeric human CD48-mFc [2], the Kd was 0.0663 nM, the T½ turned out to be 140 min, the koff was 8.27e-05 s⁻¹ and the kon turned out to be 1.25e+06 M⁻¹ s⁻¹.

B2: H4H1713N (antibody, human IgG4, V domains shown)
VH: QVQLVQSGAEVKKPGASVKVSCKASGHTFTNYYIHWVRQAPGQGLEWMGITNPNDGNTRYAQKFQGRISMTWDTSTSTVFMELSSLKSEDTAVYYCAGLRYWFFDLWGRGTPVTVSS
VL: DIQMTQSPSSVSASVGDRVTITCRASQDISSWLAWYQQKPGKAPNLLIFAASSLQSGVPSRFSGSGSGTDFTLTISSLQPEDFGTYYCQQTDNFPRTFGQGTKVEIN
notes: Human IgG4 Fc (prefix H4H)
On to B2, for which, in the assay with Monomeric human CD48-mmH [3], the affinity, expressed as Kd, was 0.893 nM; the T½ was 67 min; the koff was 0.000174 s⁻¹; the kon turned out to be 194000 M⁻¹ s⁻¹. Also, in the assay with Dimeric human CD48-mFc [4], the Kd was 0.0212 nM, the T½ was found to be 609 min, the koff is 1.9e-05 s⁻¹ and the kon was 894000 M⁻¹ s⁻¹.

B3: H2M1710N (antibody, mouse IgG2, V domains shown)
VH: QVQLVQSGADMKKPGASVRVSCKASGYTFTDYFIHWVRQAPGQGPEWMGWINPDSGATNYAQQFQGRVTMTRDTSISATYMEMSRLRSDDTAVFYCARDKDGSGWYLDDWGQGTLVTVSS
VL: EIVLTQSPATLSLSPGERATLSCRASQSVNIYLAWYQQKPGQAPRLLIYDASNRASGIPARFSGSGSGTDFTLTISSLEPEDFAVYYCQQRSNWPPSITFGQGTRLEIK
notes: as for B1
In the assay with Monomeric human CD48-mmH [1], B3 came in with a Kd of 153 nM, a T½ of 2 min, an off-rate (koff) of 0.0052 s⁻¹ and a kon of 34000 M⁻¹ s⁻¹. In the assay with Dimeric human CD48-mFc [2], the Kd is 0.885 nM, the T½ was 27 min, the koff turned out to be 0.000426 s⁻¹ and the association rate constant (kon) was 481000 M⁻¹ s⁻¹.

B4: H2M1764N (antibody, mouse IgG2, V domains shown)
VH: QVQLVESGGGVVQPGRSLRLSCAASGFTFSDYGMHWVRQAPGKGLEWVAVIWNDGSNKNYADSVKGRFSISSDSSKNTLYLHMNSLRAEDTAVYYCARSLYSTSPWYFDLWGRGTLVTVSS
VL: not shown
notes: as for B1
In the assay with Monomeric human CD48-mmH [1], B4 registered a dissociation constant (Kd) of 94.7 nM, a T½ of 1 min, a koff of 0.016 s⁻¹ and a kon of 169000 M⁻¹ s⁻¹. In the assay with Dimeric human CD48-mFc [2], the affinity, expressed as Kd, was 0.586 nM; the T½ is 28 min; the off-rate constant (koff) was found to be 0.000412 s⁻¹; the kon is 702000 M⁻¹ s⁻¹.

B5: H2M1764N (antibody, mouse IgG2, V domains shown)
VH: QVQLVESGGGVVQPGRSLRLSCAASGFTFSDYGMHWVRQAPGKGLEWVAVIWNDGSNKNYADSVKGRFSISSDSSKNTLYLHMNSLRAEDTAVYYCARSLYSTSPWYFDLWGRGTLVTVSS
VL: not shown
notes: Human variable domains, mouse IgG2 Fc (prefix H2M)
In the assay with Monomeric human CD48-mmH [3], B5 showed a dissociation constant (Kd) of 23.5 nM, a T½ of 4 min, an off-rate constant (koff) of 0.00285 s⁻¹ and a kon of 121000 M⁻¹ s⁻¹. Also, in the assay with Dimeric human CD48-mFc [4], the Kd was 1.03 nM, the T½ stood at 43 min, the off-rate constant (koff) worked out at 0.000266 s⁻¹ and the kon worked out at 259000 M⁻¹ s⁻¹.
